The Immune Epitope Database (IEDB)
pKd: −log10 of the molar value.

Key:
HLA-A*23:01 = assay: IEDB peptide-MHC binding, purified MHC/competitive/radioactivity; filed as Kd, often an IC50 or EC50 that approximates it; ≥ and ≤ were set here for values at or beyond the usual limits of such assays
HLA-A*24:02 = assay: as above
HLA-A*02:01 [1] = assay: as above
HLA-A*02:02 = assay: as above
HLA-A*68:02 = assay: as above
HLA-A*02:03 = assay: as above
HLA-A*02:06 = assay: as above
HLA-B*44:03 = assay: as above; conditions: source organism: Dengue virus 1 Brazil/97-11/1997
HLA-A*11:01 = assay: as above; conditions: source organism: Vaccinia virus WR
HLA-B*54:01 = assay: as above; conditions: source organism: Vaccinia virus WR
HLA-A*31:01 = assay: as above; conditions: source organism: Vaccinia virus WR
HLA-B*51:01 [2] = assay: as above
HLA-B*07:02 = assay: as above; conditions: source organism: Vaccinia virus WR
HLA-B*35:01 = assay: as above; conditions: source organism: Vaccinia virus WR
HLA-A*03:01 [3] = assay: as above; conditions: source organism: Vaccinia virus WR
HLA-A*33:01 = assay: as above; conditions: source organism: Vaccinia virus WR
HLA-A*68:01 = assay: as above; conditions: source organism: Vaccinia virus WR
HLA-B*53:01 = assay: as above; conditions: source organism: Vaccinia virus WR
HLA-A*01:01 = assay: as above
HLA-A*26:01 [4] = assay: as above
HLA-A*30:01 = assay: as above
HLA-A*30:02 = assay: as above
HLA-A*29:02 = assay: as above
HLA-A*32:01 = assay: as above
HLA-B*18:01 [5] = assay: IEDB peptide-MHC binding, purified MHC/direct/fluorescence; filed as Kd, often an IC50 or EC50 that approximates it; ≥ and ≤ were set here for values at or beyond the usual limits of such assays
HLA-A*02:01 [6] = assay: as above; conditions: source organism: Juquitiba virus
HLA-A*03:01 [7] = assay: as above; conditions: source organism: Araucaria virus
HLA-B*57:01 = assay: IEDB peptide-MHC binding, purified MHC/competitive/fluorescence; filed as Kd, often an IC50 or EC50 that approximates it; ≥ and ≤ were set here for values at or beyond the usual limits of such assays; conditions: source organism: Hantavirus HPR/02-73
HLA-B*27:03 = assay: as above; conditions: source organism: Hantavirus HPR/02-73
HLA-B*51:01 [8] = assay: as above; conditions: source organism: Hantavirus HPR/02-73
HLA-B*18:01 [9] = assay: as above; conditions: source organism: Hantavirus HPR/02-73
HLA-A*26:01 [10] = assay: as above; conditions: source organism: Hantavirus HPR/02-73
[11] = source organism: Dengue virus 4 Philippines/H241/1956
[12] = source organism: Trypanosoma cruzi
[13] = source organism: Dengue virus 2 Jamaica/1409/1983
[14] = source organism: Dengue virus 1 Brazil/97-11/1997
[15] = source organism: Lassa virus Josiah
[16] = source organism: Vaccinia virus WR
[17] = source organism: Mammarenavirus whitewaterense
[18] = source organism: Mammarenavirus juninense
[19] = source organism: Mammarenavirus guanaritoense
[20] = source organism: Dengue virus 1 Singapore/S275/1990
[21] = source organism: Human immunodeficiency virus type 1 (SF33 ISOLATE)

Sequence: GWKNWQEVPF
- pKd (HLA-A*23:01; [11]): 6.37
- pKd (HLA-A*24:02; [11]): 6.72

Sequence: ILNAMITKI
- pKd (HLA-A*02:01 [1]; source organism: Homo sapiens): 7.02

Sequence: LVGLLSNAAS
- pKd (HLA-A*02:02; [12]): 5.76
- pKd (HLA-A*68:02; [12]): 5.37
- pKd (HLA-A*02:03; [12]): 6.40
- pKd (HLA-A*02:06; [12]): 5.88
- pKd (HLA-A*02:01 [1]; [12]): 4.95

Sequence: TYGLNTFTNM
- pKd (HLA-A*23:01; [13]): 5.31

Sequence: FANYNFTLV
- pKd (HLA-A*02:02; [12]): 7.65
- pKd (HLA-A*68:02; [12]): 10.99
- pKd (HLA-A*02:03; [12]): ≤ 4.11
- pKd (HLA-A*02:06; [12]): 11.23

Sequence: LLGMWGIAAI
- pKd (HLA-A*02:02; [12]): 7.61
- pKd (HLA-A*68:02; [12]): ≤ 4.37
- pKd (HLA-A*02:03; [12]): 8.50
- pKd (HLA-A*02:06; [12]): 8.02
- pKd (HLA-A*02:01 [1]; [12]): 7.84

Sequence: SFIEVKTCIW
- pKd (HLA-A*23:01; [14]): 7.76
- pKd (HLA-B*44:03): 5.90

Sequence: GLYNFATCGL
- pKd (HLA-A*02:02; [15]): 8.29
- pKd (HLA-A*68:02; [15]): ≤ 5.30
- pKd (HLA-A*02:03; [15]): 8.64
- pKd (HLA-A*02:06; [15]): 6.66

Sequence: YLLPSRGPKL
- pKd (HLA-A*02:01 [1]; source organism: Hepatitis C virus subtype 2b): 6.19

Sequence: ATLMKTSCSK
- pKd (HLA-A*11:01): 7.70
- pKd (HLA-A*02:02; [16]): ≤ 4.15
- pKd (HLA-B*54:01): ≤ 4.16
- pKd (HLA-A*68:02; [16]): ≤ 4.16
- pKd (HLA-A*31:01): 6.39
- pKd (HLA-A*02:03; [16]): ≤ 4.15
- pKd (HLA-B*51:01 [2]; [16]): ≤ 4.16
- pKd (HLA-A*02:06; [16]): ≤ 4.16
- pKd (HLA-B*07:02): ≤ 4.67
- pKd (HLA-B*35:01): ≤ 4.16
- pKd (HLA-A*02:01 [1]; [16]): ≤ 4.16
- pKd (HLA-A*03:01 [3]): 7.47
- pKd (HLA-A*33:01): ≤ 4.15
- pKd (HLA-A*68:01): 5.31
- pKd (HLA-B*53:01): ≤ 4.16

Sequence: MTTEDMLAV
- pKd (HLA-A*01:01; [13]): 5.57
- pKd (HLA-A*68:02; [13]): 7.97
- pKd (HLA-A*02:06; [13]): 8.15
- pKd (HLA-A*26:01 [4]; [13]): 6.21

Sequence: MWHVTRGSVI
- pKd (HLA-A*23:01; [11]): 5.97
- pKd (HLA-A*24:02; [11]): 5.89

Sequence: ELINIPYCNY
- pKd (HLA-A*30:01; [17]): ≤ 4.15
- pKd (HLA-A*30:02; [17]): 7.05
- pKd (HLA-A*01:01; [17]): 4.80
- pKd (HLA-A*29:02; [17]): 5.74
- pKd (HLA-A*32:01; [17]): ≤ 4.55
- pKd (HLA-A*26:01 [4]; [17]): 6.64

Sequence: FPFGDVWNY
- pKd (HLA-B*18:01 [5]; source organism: Listeria innocua): 8.85

Sequence: IAMGYVVSSF
- pKd (HLA-A*30:01; [18]): 5.04
- pKd (HLA-A*30:02; [18]): 6.66
- pKd (HLA-A*01:01; [18]): 5.29
- pKd (HLA-A*29:02; [18]): 5.83
- pKd (HLA-A*32:01; [18]): 6.00
- pKd (HLA-A*26:01 [4]; [18]): 6.28

Sequence: GARVIWMDAY
- pKd (HLA-A*11:01): 5.26
- pKd (HLA-A*31:01): 6.66
- pKd (HLA-A*29:02; [16]): ≤ 4.25
- pKd (HLA-A*03:01 [3]): 5.99
- pKd (HLA-A*33:01): 6.30
- pKd (HLA-A*68:01): 6.01

Sequence: FYSEESPTEY
- pKd (HLA-A*30:01; [19]): ≤ 4.31
- pKd (HLA-A*30:02; [19]): ≤ 4.57
- pKd (HLA-A*01:01; [19]): 6.72
- pKd (HLA-A*29:02; [19]): 7.10
- pKd (HLA-A*32:01; [19]): ≤ 4.16
- pKd (HLA-A*26:01 [4]; [19]): 5.13

Sequence: GLVGLVTFLL
- pKd (HLA-A*02:02; [15]): 6.72
- pKd (HLA-A*68:02; [15]): 6.67
- pKd (HLA-A*02:03; [15]): 6.91
- pKd (HLA-A*02:06; [15]): 5.69
- pKd (HLA-A*02:01 [1]; [15]): 7.31

Sequence: LLQYWSQEL
- pKd (HLA-A*02:01 [1]; source organism: HIV-1 M:B_MN): 6.72

Sequence: KEVSGVKGF
- pKd (HLA-B*18:01 [5]; source organism: Yellow fever virus): 6.30

Sequence: IMTSYQYLII
- pKd (HLA-A*02:01 [1]; [15]): 6.00

Sequence: EVDSFSLGLL
- pKd (HLA-A*68:02; [20]): 6.84
- pKd (HLA-A*26:01 [4]; [20]): 5.71

Sequence: LLFASMGFK
- pKd (HLA-A*11:01): 8.77
- pKd (HLA-A*02:02; [16]): 6.53
- pKd (HLA-B*54:01): ≤ 4.11
- pKd (HLA-A*68:02; [16]): ≤ 4.44
- pKd (HLA-A*31:01): 7.25
- pKd (HLA-A*02:03; [16]): 6.74
- pKd (HLA-B*51:01 [2]; [16]): ≤ 4.11
- pKd (HLA-A*02:06; [16]): 4.78
- pKd (HLA-B*07:02): ≤ 4.11
- pKd (HLA-B*35:01): ≤ 4.38
- pKd (HLA-A*02:01 [1]; [16]): 5.32
- pKd (HLA-A*03:01 [3]): 9.06
- pKd (HLA-A*33:01): 5.53
- pKd (HLA-A*68:01): 7.90
- pKd (HLA-B*53:01): ≤ 4.11

Sequence: RPDTRHLRVL
- pKd (HLA-A*11:01): ≤ 4.16
- pKd (HLA-A*02:02; [16]): ≤ 4.15
- pKd (HLA-B*54:01): ≤ 4.16
- pKd (HLA-A*68:02; [16]): ≤ 4.16
- pKd (HLA-A*31:01): ≤ 4.15
- pKd (HLA-A*02:03; [16]): ≤ 4.15
- pKd (HLA-B*51:01 [2]; [16]): ≤ 4.16
- pKd (HLA-A*02:06; [16]): ≤ 4.16
- pKd (HLA-B*07:02): 7.93
- pKd (HLA-B*35:01): ≤ 4.16
- pKd (HLA-A*02:01 [1]; [16]): ≤ 4.16
- pKd (HLA-A*03:01 [3]): ≤ 4.15
- pKd (HLA-A*33:01): ≤ 4.15
- pKd (HLA-A*68:01): ≤ 4.15
- pKd (HLA-B*53:01): ≤ 4.16

Sequence: VTLITGNMSF
- pKd (HLA-A*24:02; [13]): 4.94

Sequence: PYMPTVIEEL
- pKd (HLA-A*24:02; [11]): 6.68

Sequence: LTFIRSTMPL
- pKd (HLA-A*68:02; [11]): 7.70
- pKd (HLA-B*51:01 [2]; [11]): 5.82
- pKd (HLA-A*26:01 [4]; [11]): 5.13

Sequence: YILGFAIPI
- pKd (HLA-A*02:01 [6]): 9.52
- pKd (HLA-A*03:01 [7]): ≤ 4.70
- pKd (HLA-B*57:01): ≤ 4.70
- pKd (HLA-B*27:03): ≤ 4.70
- pKd (HLA-B*51:01 [8]): ≤ 4.70
- pKd (HLA-B*18:01 [9]): ≤ 4.70
- pKd (HLA-A*26:01 [10]): ≤ 4.70

Sequence: YLSTERDHV
- pKd (HLA-A*02:01 [1]; source organism: Variola virus): 7.00

Sequence: SFIEVKSCHW
- pKd (HLA-A*23:01; [13]): 6.34

Sequence: LVGLVTFLL
- pKd (HLA-A*02:01 [1]; [15]): 6.19

Sequence: ALIRILQQL
- pKd (HLA-A*02:02; [21]): 8.48
- pKd (HLA-A*68:02; [21]): ≤ 4.19
- pKd (HLA-A*02:03; [21]): 8.52
- pKd (HLA-A*02:06; [21]): 8.09
- pKd (HLA-A*02:01 [1]; [21]): 7.55

Sequence: QYVYMGQPL
- pKd (HLA-A*24:02; [14]): 5.34

Sequence: AYAQMWSLM
- pKd (HLA-A*24:02; source organism: Dengue virus 3 Martinique/1243/1999): 7.92

Sequence: CWCNATDTW
- pKd (HLA-A*23:01; [14]): 6.15

Sequence: RLTQSHPIL
- pKd (HLA-A*02:01 [1]; [15]): 5.78

Sequence: VTNLISETLK
- pKd (HLA-A*11:01): 8.07
- pKd (HLA-A*02:02; [16]): ≤ 4.15
- pKd (HLA-B*54:01): ≤ 4.16
- pKd (HLA-A*68:02; [16]): ≤ 4.46
- pKd (HLA-A*31:01): 5.49
- pKd (HLA-A*02:03; [16]): ≤ 4.15
- pKd (HLA-B*51:01 [2]; [16]): ≤ 4.16
- pKd (HLA-A*02:06; [16]): 4.76
- pKd (HLA-B*07:02): ≤ 4.16
- pKd (HLA-B*35:01): ≤ 4.16
- pKd (HLA-A*02:01 [1]; [16]): ≤ 4.16
- pKd (HLA-A*03:01 [3]): 6.39
- pKd (HLA-A*33:01): ≤ 4.47
- pKd (HLA-A*68:01): 7.03
- pKd (HLA-B*53:01): ≤ 4.16
